Sequences and labels used below:
B1: Hsp42ΔPrLD (purified) (domain or fragment, S. cerevisiae, UniProt Q12329 100-375, looked up)
chain: MVGDSGTTRQEDGGEDSNSRRYPSYYHCNTARNNRTNQQANSLNDLLTALIGVPPYEGTEPEIEANTEQEGEKGEEKDKKDKSEAPKEEAGETNKEKPLNQLEESSRPPLAKKSSSFAHLQAPSPIPDPLQVSKPETRMDLPFSPEVNVYDTEDTYVVVLALPGANSRAFHIDYHPSSHEMLIKGKIEDRVGIDEKFLKITELKYGAFERTVKFPVLPRIKDEEIKATYNNGLLQIKVPKIVNDTEKPKPKKRIAIEEIPDEELEFEENPNPTVEN
B2: Hsp42ΔIDD (purified) (natural protein, S. cerevisiae, UniProt Q12329 1-375, looked up)
chain: MSFYQPSLSLYDVLNALSNQTGQRGQQGYPRQPQRPQRYHPHYGQVHVGGHHPRHHPLYSRYNGVPNTYYYQFPGQAYYYSPEYGYDDEDGEEEDQDEDSPEVNVYDTEDTYVVVLALPGANSRAFHIDYHPSSHEMLIKGKIEDRVGIDEKFLKITELKYGAFERTVKFPVLPRIKDEEIKATYNNGLLQIKVPKIVNDTEKPKPKKRIAIEEIPDEELEFEENPNPTVEN
B3: malate dehydrogenase (MDH) (enzyme)
chain: AKVAVLGASGGIGQPLSLLLKNSPLVSRLTLYDIAHTPGVAADLSHIETRATVKGYLGPEQLPDCLKGCDVVVIPAGVPRKPGMTRDDLFNTNATIVATLTAACAQHCPDAMICIISNPVNSTIPITAEVFKKHGVYNPNKIFGVTTLDIVRANAFVAELKGLDPARVSVPVIGGHAGKTIIPLISQCTPKVDFPQDQLSTLTGRIQEAGTEVVKAKAGAGSATLSMAYAGARFVFSLVDAMNGKEGVVECSFVKSQETDCPYFSTPLLLGKKGIEKNLGIGKISPFEEKMIAEAIPELKASIKKGEEFVKNMK

The series “SEC-MALS” deals with the molecule itself. As to the kind of experiment: SEC-MALS.
For series [1], the target named is B3. As to the kind of experiment: HDX-MS.
For series [2], the target named is Hsp42 WT (purified, C-terminally FLAG-tagged) (S. cerevisiae, UniProt Q12329 1-375). The series is described as follows: HDX-MS.

Turning to B1, the “stoichiometry N” value in the series “SEC-MALS” was determined as 4 subunits.
With B2, the “stoichiometry N” value in “SEC-MALS” was 36 subunits. The binding result in series [1] is on record as “binds”.
For B3, the binding result in series [2] was “binds”.

Usually stoichiometry N stands for the number of molecules, sites or subunits per partner or assembly.

The values above are taken from paper PMC5881502 (The Journal of Cell Biology, 2018).
